We go through 7 molecules from US20260209301A1 (LIFEARC, published 2026).

Holding throughout (test): cell-based or functional assay
In one assay the target is T1, human GalR1 (human, UniProt P47211 1-349).
T1 sequence (looked up): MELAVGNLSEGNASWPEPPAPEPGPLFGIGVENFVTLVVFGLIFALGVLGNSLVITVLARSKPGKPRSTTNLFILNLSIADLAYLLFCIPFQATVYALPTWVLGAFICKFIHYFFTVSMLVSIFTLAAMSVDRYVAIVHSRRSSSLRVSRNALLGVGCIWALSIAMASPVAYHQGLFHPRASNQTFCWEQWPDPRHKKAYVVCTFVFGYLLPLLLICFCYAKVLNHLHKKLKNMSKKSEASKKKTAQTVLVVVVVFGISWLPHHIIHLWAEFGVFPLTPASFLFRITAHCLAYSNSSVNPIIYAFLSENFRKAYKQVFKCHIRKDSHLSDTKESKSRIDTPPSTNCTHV

The next assay addresses T2, human GalR2 (human, UniProt O43603 1-387).
T2 sequence (looked up): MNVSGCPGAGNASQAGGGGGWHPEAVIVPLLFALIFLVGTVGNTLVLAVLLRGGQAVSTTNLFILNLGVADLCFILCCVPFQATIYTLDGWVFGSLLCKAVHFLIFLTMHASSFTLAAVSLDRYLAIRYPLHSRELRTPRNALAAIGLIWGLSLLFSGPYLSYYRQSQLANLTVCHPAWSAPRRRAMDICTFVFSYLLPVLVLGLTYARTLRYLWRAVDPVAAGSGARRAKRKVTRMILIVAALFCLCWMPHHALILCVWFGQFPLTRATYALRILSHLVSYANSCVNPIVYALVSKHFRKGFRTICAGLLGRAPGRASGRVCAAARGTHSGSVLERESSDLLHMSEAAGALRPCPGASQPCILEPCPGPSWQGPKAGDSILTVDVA

Another assay has as its target T3, rat GalR2 (Rattus rattus, UniProt O08726 1-372).
T3 sequence (looked up): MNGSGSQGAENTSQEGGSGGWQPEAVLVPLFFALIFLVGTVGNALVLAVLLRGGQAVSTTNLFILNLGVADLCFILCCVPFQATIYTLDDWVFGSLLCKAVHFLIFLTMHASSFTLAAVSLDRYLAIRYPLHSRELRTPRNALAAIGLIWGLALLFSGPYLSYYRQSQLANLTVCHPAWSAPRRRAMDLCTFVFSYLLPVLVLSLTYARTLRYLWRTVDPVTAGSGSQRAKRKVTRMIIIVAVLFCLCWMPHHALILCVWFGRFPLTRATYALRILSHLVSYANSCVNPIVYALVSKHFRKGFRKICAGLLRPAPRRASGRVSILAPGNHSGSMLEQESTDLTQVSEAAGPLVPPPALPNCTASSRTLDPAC

Another assay addresses T4, mouse GalR2 (Mus musculus, UniProt O88854 1-371).
T4 sequence (looked up): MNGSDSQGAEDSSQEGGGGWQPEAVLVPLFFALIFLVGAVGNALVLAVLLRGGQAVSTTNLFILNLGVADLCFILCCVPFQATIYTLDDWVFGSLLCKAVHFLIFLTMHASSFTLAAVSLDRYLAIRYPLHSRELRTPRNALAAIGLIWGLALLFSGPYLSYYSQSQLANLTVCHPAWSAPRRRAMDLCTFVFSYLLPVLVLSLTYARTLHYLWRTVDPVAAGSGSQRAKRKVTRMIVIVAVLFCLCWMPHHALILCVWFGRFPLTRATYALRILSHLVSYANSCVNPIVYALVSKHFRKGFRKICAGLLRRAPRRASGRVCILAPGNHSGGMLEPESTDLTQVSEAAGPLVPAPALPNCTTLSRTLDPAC

The target of a further assay is T5, cynomolgus GalR2 (Macaca fascicularis, UniProt A0A2K5WWW1 1-386).
T5 sequence: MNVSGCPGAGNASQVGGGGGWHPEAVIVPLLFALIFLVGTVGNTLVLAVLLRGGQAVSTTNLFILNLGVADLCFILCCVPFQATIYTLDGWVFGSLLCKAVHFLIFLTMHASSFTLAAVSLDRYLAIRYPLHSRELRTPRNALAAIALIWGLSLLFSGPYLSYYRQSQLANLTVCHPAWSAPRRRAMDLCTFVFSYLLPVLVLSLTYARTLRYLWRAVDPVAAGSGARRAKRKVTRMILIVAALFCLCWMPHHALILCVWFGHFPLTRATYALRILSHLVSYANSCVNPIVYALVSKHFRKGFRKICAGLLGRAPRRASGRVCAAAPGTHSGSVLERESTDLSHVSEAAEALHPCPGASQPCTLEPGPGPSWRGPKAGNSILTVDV

No end group written: not given here.

Consider WTLNSAGYLLGPKKKKK (also: PEG (dPEG24) on one lysine, site not given here) [Nax409-9], for which, in the assay with human GalR1, the “Beta Arrestin IA (%)” value is 7%, the “cAMP IA (%)” value was 66% and the “cAMP pEC50” value is 6.5 pEC50. Moreover, in the assay with human GalR2, the “Beta Arrestin pEC50” value was 5.8 pEC50 and the “Calcium pEC50” value worked out at 6.9 pEC50.

As to GWTLNSAGYLLGPHAVGNHRSFSDKNGLTS [Galanin 1-30 (human)], the “calcium assay activity (quantity not given)” value with rat GalR2 turned out to be 8.8; with mouse GalR2, 9; with cynomolgus GalR2, 9.6.

On to GWTLNSAGYLLGPHA [Galanin 1-15], for which, in the assay with human GalR2, the “Beta Arrestin pEC50” value is 7.2 pEC50 and the “Calcium pEC50” value was found to be 8.6 pEC50.

With GWTLNSAGYLLGPQPPGFSPFR [M617], in the assay with human GalR1, the “Beta Arrestin IA (%)” value was 99%, the “Beta Arrestin pEC50” value stood at 8.68 pEC50, the “cAMP IA (%)” value was 90.1% and the “cAMP pEC50” value came out at 10 pEC50. In addition, in the assay with human GalR2, the “Beta Arrestin pEC50” value was found to be 8.4 pEC50 and the “Calcium pEC50” value came to 9.6 pEC50.

On to WTLNSAGYLLGPHAIDNHRSFHDKYGLA [Galanin 2-29 (rat)], for which, in the assay with human GalR1, the “Beta Arrestin IA (%)” value was found to be 67.2%, the “Beta Arrestin pEC50” value stood at 8.09 pEC50, the “cAMP IA (%)” value came out at 90.8% and the “cAMP pEC50” value worked out at 8.6 pEC50. In addition, in the assay with human GalR2, the “Beta Arrestin pEC50” value was 8.1 pEC50 and the “Calcium pEC50” value turned out to be 9.2 pEC50.

Consider WTLNSAGYLL [Galanin 2-11], for which, in the assay with human GalR2, the “Beta Arrestin pEC50” value came to 6.4 pEC50 and the “Calcium pEC50” value was found to be 7.6 pEC50.

In the case of RGRGNWTLNSAGYLLGPVLPPPALALA [M1145], in the assay with human GalR1, the “Beta Arrestin IA (%)” value worked out at 24.5%, the “cAMP IA (%)” value stood at 86.7% and the “cAMP pEC50” value was 6.8 pEC50. Also, in the assay with human GalR2, the “Beta Arrestin pEC50” value came to 7.9 pEC50 and the “Calcium pEC50” value turned out to be 8.9 pEC50.
